Results reported in PMC12847411, “High-affinity optimization potential of the virus neutralizing antibody with twin cysteine-stabilized complementarity-determining region 3” (Frontiers in Cellular and Infection Microbiology, 2025).

B1: AZD8895-450 (antibody, V domains shown)
VH: QMQLVQSGPEVKKPGTSVKVSCKASGFTFMSSAVQWVRQARGQRLEWIGWIVIGSGNTNYAQKFQERVTITRDMSTSTAYMELSSLRSEDTAVYYCAANYCSSTICSDGMDIWGQGTMVTVSS
VL: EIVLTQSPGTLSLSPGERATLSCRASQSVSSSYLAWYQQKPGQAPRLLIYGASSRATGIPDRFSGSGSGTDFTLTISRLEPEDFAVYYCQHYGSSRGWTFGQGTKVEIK
B2: AZD8895-25 (antibody, V domains shown)
VH: QMQLVQSGPEVKKPGTSVKVSCKASGFTFMSSAVQWVRQARGQRLEWIGWIVIGSGNTNYAQKFQERVTITRDMSTSTAYMELSSLRSEDTAVYYCAAPYCSLTCCSDGFDIWGQGTMVTVSS
VL: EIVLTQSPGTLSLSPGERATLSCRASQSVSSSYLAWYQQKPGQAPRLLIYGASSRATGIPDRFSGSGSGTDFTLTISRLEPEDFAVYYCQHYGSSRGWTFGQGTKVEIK
B3: AZD8895 (antibody, V domains shown)
VH: QMQLVQSGPEVKKPGTSVKVSCKASGFTFMSSAVQWVRQARGQRLEWIGWIVIGSGNTNYAQKFQERVTITRDMSTSTAYMELSSLRSEDTAVYYCAAPYCSSISCNDGFDIWGQGTMVTVSS
VL: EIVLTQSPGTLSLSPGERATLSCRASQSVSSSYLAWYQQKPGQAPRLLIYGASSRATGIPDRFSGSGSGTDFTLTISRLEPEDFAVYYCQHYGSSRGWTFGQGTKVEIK
notes: also called seed antibody AZD8895; seed mAb; source: HEK293, transient transfection, purified (HiTrap Protein A HP)
B4: AZD8895-449 (antibody, V domains shown)
VH: QMQLVQSGPEVKKPGTSVKVSCKASGFTFMSSAVQWVRQARGQRLEWIGWIVIGSGNTNYAQKFQERVTITRDMSTSTAYMELSSLRSEDTAVYYCAAPYCSLTNCSDGFDIWGQGTMVTVSS
VL: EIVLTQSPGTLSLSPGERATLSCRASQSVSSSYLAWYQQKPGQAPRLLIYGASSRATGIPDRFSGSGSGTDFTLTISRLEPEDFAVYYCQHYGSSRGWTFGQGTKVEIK
B5: AZD8895-275 (antibody, V domains shown)
VH: QMQLVQSGPEVKKPGTSVKVSCKASGFTFMSSAVQWVRQARGQRLEWIGWIVIGSGNTNYAQKFQERVTITRDMSTSTAYMELSSLRSEDTAVYYCAAPYCSLTYCSDGFDIWGQGTMVTVSS
VL: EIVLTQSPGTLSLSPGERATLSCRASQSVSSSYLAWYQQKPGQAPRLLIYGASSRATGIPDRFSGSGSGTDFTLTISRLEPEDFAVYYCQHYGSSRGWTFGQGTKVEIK

These binders were tested against recombinant Fc-fused SARS-CoV-2 RBD protein (Severe acute respiratory syndrome …, UniProt P0DTC2) (assay: SPR). Conditions: both partners purified.
With B1 the Kd was 16.5 nM.
In the case of B2, the Kd is reported as 4.79 nM.
Work on B3 yielded a Kd of 12.6 nM.
Binder B4 has a Kd of 13.2 nM.
Binder B5 has a Kd of 8.42 nM.
